# Results as given in the DeepSol protein solubility set.
# Test: soluble on expression in E. coli; label from the status in PepcDB or PDB records
row,Sequence,soluble on expression in E. coli
1,MGSDKIHHHHHHMYDATHLFEPPVMTEEEKMERFKERIENGEKIEADDWMPDFYRDTLIKLISMHGISEIMGALPEKEWVPKAPSLRRKLGIMAKVQDEMGHGQLLLRVVEDLMKPYGKTRADLMDDLFTGRLKFHNVFHMPTRSWADAGTIGWLVDGAAIITQTNMLGASYGPYARALQRICAEEVFHAQHGESIIMALAEGTPEQKAMIQESLDEWWESLLMFFGPASKETTGTSKQDVTIAYKIRTKTNEELRQNFFTKYVPRIRSLGLIIPDPTLRFDEETGQWIYAQPDWTEFKKIIQGGCPRSKERLALRQTSYQNNAWVREALAETIG,not soluble
2,MSFQLHPDTTLDVVHLYVSNVKKSLEFYTEVLSMKVLKEEEAVVTFGNENDEPLLIIEEKKEAFPKQRGRTGLYHYAILLPSRQDLANVLRHLVEMVYPLHGGADHYFSEALYLADPDGNGIEIYHDRQKEVWRDENGELPFVSNPLAGEELLQQGSTWNGFPAGTVMGHIHFHVADLEEAKCFYVDGLGFEVTIPARNGALFVSAGGYHHHIGLNTWQGEGVPPQMPGSVGLKYFTIVLADEKQKEQVCESLKNIGKIATYKDGILQVEDPFGHCIHFKIKGEA,not soluble
3,MSSSGNGRSNNDRADQLRREEQERKDRELAERLQREQSDDTPPAVARRGRNRAAARERASPYSRSRIRSTAGTSDAGPSSSSSVRGRGTRGTTSARRGRGSARGGEATMNRTRANQQISESPNRRRSTRQTRNPNPQMQFEGDRVQVRQGDEIRDITAETYFPDDDDDSDYTQSDNEEEEERNATITISSSESDADSEAESDHEERDMPRAFNPRGSYARSGRGPGGRGRVITPGRYRGSGQHNISADYIRDLLHSRIYPDNPRRDPLYRSGLNNEDESDPENVDADSDDDEAQSNGSSVIDLSDDDDVLIIGGRGAVHADRNHIRQPIFDEDRVMYNHELELYHDEEEYIVPAAKPVSAGGKLVEPDSTWGDCTMCSNPPIKPQGCKKCLQFLGCTDCVRRWYAARKGSMEGSSCPLCRAPWTGRAGVLMMTTIQKNVKKAGITSANTSSDSSLPSTSSLPNN,not soluble
4,MTTSPDPYAALPKLPSFSLTSTSITDGQPLATPQVSGIMGAGGADASPQLRWSGFPSETRSFAVTVYDPDAPTLSGFWHWAVANLPANVTELPEGVGDGRELPGGALTLVNDAGMRRYVGAAPPPGHGVHRYYVAVHAVKVEKLDLPEDASPAYLGFNLFQHAIARAVIFGTYEQR,soluble
5,ATQRFLIEKFSQEQIGENIVCRVICTTGQIPIRDLSADISQVLKEKRSIKKVWTFGRNPACDYHLGNISRLSNKHFQILLGEDGNLLLNDISTNGTWLNGQKVEKNSNQLLSQGDEITVGVGVESDILSLVIFINDKFKQCLEQNKVDRIR,soluble
6,MAQHVKKPEWLKIRLGGNEKFTETKSIVEGHCLHTICTSGKCPNMGECWSRGTATFMIGGDICTRACRFCNTLTGRPKPLNEAEPTHVALSIKLMGLNHAVVTSVDRDDLPDYGAAHWVKTIQEIRRINSGVTLEVLIPDFKGRMDLVDMIIEASPDVISHNLETVRRLTPSVRSVATYDTSLAVLRHIAQSGKMPAKTGMMLGLGETEEEILELMDDALAAGVSVITIGQYLQPSRKNLPVVEYITPEQFEHLRLVGIEKGFRTIESAPLVRSSYHAERHL,not soluble
7,MGSDKIHHHHHHMDALVRASGLRGYPALMRDLGCDPTPLLQRYHLDEGALGSDDAMISLRAVVHLLEASAEQTRTGDLGLRLSRHQSIDVLGPLSIALQNAPTIRAAMDFAARHTFVHSPGLVYAVHKHSEFANDAAEVSIEIRLSRQPAQRQTIDLCLADIHNFTRLLAGDRYLLRAVSVPHTPVVPVSTYERFFGARVWVEQPRASLHLSRSTLAADLLGVDATLRRIAEDYIFRHFGSEQGSVSDRVRQVLRQTLGTSSHSKATVADLLALHPRTMQRRLAAEATSFEAIRDDVRRELAMRYLCETSLPLGQISLLLGLPAQSALSRACRQWYGVPPSALRKHKRAAD,not soluble
8,GMSSSGTSITCEVGLQLIVPDRAPVPLVARLDYSVDDPYAIRAAFHVGDDEPVEWIFARELLTVGIIRETGEGDVRIWPSQDGKERMVNIALSSPFGQARFHAQVAPLSEFLHRTYELVPAGQESDYIDIDAEIAEHLS,soluble
9,MKKKMMTVFTIGVMSLSILGGASPSETQKGKTDYTQRSKEQLNNGKIHAVHTEEKAEKLGIETEGKEQITLEKEIHETEVGREAEQLGISIEGKDVGMLSEEIYETKVKQEALKLGISIENTSIVDLITQINAIKIKDEADKLGISTDGKEIEDIAEEIYGKKVREEAGKLDISQKGKEIEELAQEVYEQKVQEEAKKHHIDLYGKDIYQILREINEQKVLQMADELNMDKMNMNIQELAEKIKKDQPEKGKELNFVPMVRTDADAFYSYLTNLEHHHHHH,not soluble
10,MTKVALFSGGDLTYFTRDFDYFVGIDKGSSFLLKNQLPLDLAIGDFDSVSAEEFKQIKAKAKKLVMAPAEKNDTDTELALKTIFDCFGRVEIIVFGAFGGRIDHMLSNIFLPSDPDLAPFMRCFKLRDEQNLVEFFPAGQHQIEQATDMVYISFMAANGAHLSIQDAKYELTEENYFQKKIYSSNEFKDKPICFSVASGYVVVIQTKDRTLEHHHHHH,soluble
11,MTLPDSKKDQTARHVAILQESYRHYTGRYLFDPKLGASEAIVWLEQAPFALVSHGTQPDPIFNYGNQTALQLFGMTWDEFTRMPSRLSAEPVDRAERTRLLDHVSRDGYIDDYTGVRIAADGRRFLIRHATVWNLLDESGRFYGQAAMIPEWEVLQPVFTAD,not soluble
12,MENPMNTDHTKRNLFELYAELIHQQEKWEGLIKAFLSDELRKLDVEHGSKSQLTMTEIHVLSCVGDNEPINVTSIAEKMNTTKATVSRISTKLLGAGFLHRTQLSDNKKEVYFRLTPAGKKLHSLHKYYHQKAEQRFLSFFDRYTEEEILFAERLFRDLVTKWYPSSEEIEGGLPSIFK,not soluble
13,MAKKPTALIILDGFANRESEHGNAVKLANKPNFDRYYNKYPTTQIEASGLDVGLPEGQMGNSEVGHMNIGAGRIVYQSLTRINKSIEDGDFFENDVLNNAIAHVNSHDSALHIFGLLSDGGVHSHYKHLFALLELAKKQGVEKVYVHAFLDGRDVDQKSALKYIEETEAKFNELGIGQFASVSGRYYAMDRDKRWEREEKAYNAIRNFDAPTYATAKEGVEASYNEGLTDEFVVPFIVENQNDGVNDGDAVIFYNFRPDRAAQLSEIFANRAFEGFKVEQVKDLFYATFTKYNDNIDAAIVFEKVDLNNTIGEIAQNNNLTQLRIAETEKYPHVTYFMSGGRNEEFKGERRRLIDSPKVATYDLKPEMSAYEVKDALLEELNKGDLDLIILNFANPDMVGHSGMLEPTIKAIEAVDECLGEVVDKILDMDGYAIITADHGNSDQVLTDDDQPMTTHTTNPVPVIVTKEGVTLRETGRLGDLAPTLLDLLNVEQPEDMTGESLIKH,not soluble
14,MRNPFERMPTVLTADELIDKAFRRAEKAASSFKPRGNKVKKARLREELRVRTVSNVVRDNLRKVLERTPGLSTLPKFYQELVDVLVDRDTFHKAMAGIDWAIRIIRELEERYVERIRYSNDPNEIAELRRQFYGRVASVLRDIDDRLRYLNKAREVLKDLPVVDLEIPTVVIAGHPNVGKSTLLKALTTAKPEIASYPFTTRGINVGQFEDGYFRYQIIDTPGLLDRPISERNEIEKQAILALRYLGNLIIYIFDPSEHCGFPLEEQIHLFEEVHGEFKDLPFLVVINKIDVADEENIKRLEKFVKEKGLNPIKISALKGTGIDLVKEEIIKTLRPLAEKVAREKIERELRRYRSYL,soluble
15,MAHHHHHHMGQISSKEDEIEKQNIYATYPGLEQQLDMVFACHDISKQGKLSYKTVEMILRHFLMQCGFMEYVCRFVDENGTLDLKHVSNYLSIKKLMYKLKCCGESMLTLDEMKELVIIFLKKISDTYTEDQTKWLEQMKSSQEQQDKALEEAMYKYEKNILFHHAVKEQQILQNDKKLNEWNENVENAYEAQQEILRQFESSRKKNIDISLEKNNELIIAKDYIDKIKEAATDNKYDNSKCFIYPASSAPCGACTSAGAIIHHRRYKEKRRKKEYSLCL,not soluble
16,MAGDPMIEVIGVRFKKAGKIYYFGPNGIEIKKGQNVIVETARGIEFGECVIGIRKISEEDIVAPLKSVLRLATEEDINKHKENKAKETEAFEICLKKIEEHNLVMKLIDVEYTFDNNKVIFYFTAEGRVDFRELVKDLATIFKTRIELRQIGVRDEAKMIGGLGPCGRPLCCSTFLGDFASVSIKMAKEQSLSLNPTKISGICGRLMCCLNYEQSTYEEIRKELPRVGSVVETELGKGEVVGNNVLKELVRVKLPRKNEEIIQDFKMYDVKLISGSYEGEVEDTNIRLEITDEADKALIKNLIKDNLEHHHHHH,soluble
17,MGSDKIHHHHHHNRDPHEGERGLTVAIDNTQCPDVPIGAIKLYIYGTGGNLYATYNYADARGIASVLHPLEAGHYTVAVVINADEEAAETSTLTALHEWLEIEMSHETNLLSGIAEVNVTEDGISPVTVFLQRGVFTLSTLRLQLTLPAPKLPDYTPEKSKTRAAGTANTIRCVAELCKAGTDIVVLHKAVTPVPQADGTYLVELELAEGSYDLRLWTDYARADNPLADTFYHTESLKAVTIVTKPYTANTDAKDAAYYNKSDITLSKEGATMNVQLQRPLAKYRLIAKDVENYRKLMEAKPDIYPPLKNLTVKVLYEGYFPSGFNVSTGKPNDAVGGISYSQVSLHYNDVDNEVLLGGDWVLVNGTESLVNVTVTVTDNLGNTLCRASGVKINYRNSHLTTVYGNFLTAGINKGGIDINTEWSGIYNVWF,not soluble
18,MGSDKIHHHHHHMAKEKTIYVCRSCGTKYAKWQGNCNACGEWNCIDEEKVPAPASGKHAAKSFMPREQDNRPRLLQDVESGDEERIRLGDEEFDRVLGGGIVKGAFVLLGGEPGIGKSTLILQTVLRLPQLRTLYVSGEESARQLKMRAERLGQAMNGCYVYCETNIERILSRAEELTPDLLVIDSIQTVYTEEMESSAGSVGQIRECAALLLKYCKTTGIPVIVIGHITKEGSIAGPKVLEHIVDTVLLFDGDKHHLYRILRGQKNRYGSTSELGIYEMRQDGLRGVENPSEHLITRNREDLSGIAIAVAMEGIRPILIEAQALVSSAIYANPQRSATGFDIRRMNMLLAVLEKRAGFKLIQKDVFLNIAGGIKIADPATDLAVISAVLASSLDIVIPPAVCMTGEVGLSGEIRPVSRIEQRITEARRIGFKEILVPADNFRQEDAGRFGIRLVPVRKVEEAFRHLFSKGRE,not soluble
19,MGSDKIHHHHHHMTICYNFAYLDEGTKKKIRRTLLKAVAIPGHQIPFASREMPLPYGWGTGGIQVTAAVIGPEDILKVIDQGSDDTTNAVSIRNFFRSTTGVRTTTSTREATLIQTRHRIPETPLHAGQMLIYQVPMPEPLFKLEPRVSETIALHAMADYSLMYLKLYDQITRYGRIAIGYEYPVIVHDRYLTSSSPIPAYDVPKMHMSPALQLFGAGREKRLYAIPPYTRVIPLDFTDYPFDPVNTWQPCALCGAVESYKDEIVIDDAGNRQFICSDTDFCEHRR,not soluble
20,MSLTPDPAIDEVTARVYQIPTDAPEADGTLSWSSTTLVLAEVAAGGRRGIGYTYGDGACAQLITGALAGSVTGHSALDVAARWQAMVRAMRNNGRPGLVSCAISAVDTALWDLKGKLLGLPVCRLLGMAHDSVPIYGSGGFTSYDDNATRAQLERWVHEWRIPRVKIKIGESWGSHERRDLDRIALARTVIGPDTELYVDANGGYRRKQAIRMAHAMAGHDVTWFEEPVSSDDLAGLREVRDQVSADVTAGEYGYDLAYFHRMLAADAVDCLQIDVTRCGGITDWLRAAAVAAAHNVDVSGHCAPNLHAHVATAVANLRHLEYFHDHHRIEQMFFDGALSPQGGVLRPDQQRPGFGLEFKQRDADRYRMREGHHHHHH,soluble
21,LEQLSMNLLDGALRIEHFALPQTKVAYLHLSQINFEQILALLKYQQIELKGRANATFPFWIEGKPCYVCNGSMAQAVSSRLKIAPELMQAISQSNGYSERLLAYLLHDTRITDLTSKVNINSEGEMALQAKLNMQLNQQAQTKINFNYHHQENVFKLWRTLNAGTYVEQNFENSIYQKLDRTNE,not soluble
